Legend:
Test in all cases: purified protein, by the assay type
Settings in all cases: other: 2 μM Ht-VanB, 400 μM NADH, air-saturated HEPES (I = 0.1M), pH 7.5, 25° C, VanA 0.4 μM for vanillate, 1 μM for syringate and 3MGA
[1] = substrate: COc1cc(C(=O)O)ccc1O
Protocol: (§1) In evaluating the parameters for VA, 0.4 μM VanA was used to ensure steady-state conditions at low concentrations of VA.
(§2) Steady-state kinetic analyses: Kinetic assays were performed by monitoring the consumption of O2 using a Clark-type polarographic O2 electrode OXYG1 (Hansatech) connected to a circulating water bath. Assays with the exception of GalA were performed in 1 mL of air-saturated 40 mM HEPES, 80 mM NaCl (I=0.1 M, pH 7.5) at 25° C. GalA assays were performed in 40 mM MOPS, 80 mM NaCl (I=0.1 M, pH 7.0) at 30° C. The electrode was calibrated daily according to the manufacturer's instructions using air-saturated buffer and water depleted of 02 via addition of sodium hydrosulfite. Stock solutions were prepared fresh daily. The background rate of O2-consumption was recorded prior to initiating the reaction and was subtracted from the measured reaction rate. Steady-state kinetic parameters were evaluated by fitting the Michaelis-Menten equation to the data using the least-squares fitting of LEONORA.
(§3) For VanAB, the standard reaction contained 1 μM VanA, 2 μM Ht-VanB, and 400 μM NADH. […] Stock solutions of the substrates were made in dimethylsulfoxide (DMSO). The final concentration of DMSO in the assay solutions was <1% (v/v). For PcaHG, the standard reaction contained 250 μM PCA. The reaction was initiated by adding 0.1 μM PcaHG. […] The reaction was initiated by adding 0.05 μM GalA.

[2] = substrate: COc1cc(C(=O)O)cc(O)c1O
Protocol: as §1, §2, §3

[3] = substrate: COc1cc(C(=O)O)cc(OC)c1O

B1: VanAB (vanillate O-demethylase) (Pseudomonas putida KT2440) (protein)
chain: MYPKNTWYVACTPDEIATKPLGRQICGEKIVFYRARENQVAAVEDFCPHRGAPLSLGYVEDGNLVCGYHGLVMGCDGKTVSMPGQRVRGFPCNKTFAAVERYGFIWVWPGDQAQADPALIPHLEWAVSDEWAYGGGLFHIGCDYRLMIDNLMDLTHETYVHASSIGQKEIDEAPPVTTVTGDEVVTARHMENIMAPPFWRMALRGNGLADDVPVDRWQICRFTPPSHVLIEVGVAHAGKGGYHAEAQHKASSIVVDFITPESDTSIWYFWGMARNFAAHDQTLTDNIREGQGKIFSEDLEMLERQQQNLLAHPERNLLKLNIDAGGVQSRKVLERIIAQERAPQPQLIATSANPAGKLP
For B1, the Km [1] was 4 ± 1 µM, the Km [2] was 150 ± 20 µM and the kcat [2] was 0.53 ± 0.02 s⁻¹. The kcat/Km [2] was 0.36 ± 0.04 ×10^4 s^−1 · M^−1, the Km [3] was 16 ± 2 µM and the kcat [3] was 0.89 ± 0.03 s⁻¹. For the same protein, the kcat/Km [3] was 5.5 ± 0.6 ×10^4 s^−1 · M^−1.
